Consider 3 molecules from patent publication US20260201038A1 (CELLABMED, published 2026).

Test [1] has as its target B7-H3 on human cancer cells (human) (UniProt Q5ZPR3). Put plainly: cell-based or functional assay.
For test [2], the target named is T1, human 4Ig B7-H3 expressed on Raji cells (human) (UniProt Q5ZPR3).
T1 sequence: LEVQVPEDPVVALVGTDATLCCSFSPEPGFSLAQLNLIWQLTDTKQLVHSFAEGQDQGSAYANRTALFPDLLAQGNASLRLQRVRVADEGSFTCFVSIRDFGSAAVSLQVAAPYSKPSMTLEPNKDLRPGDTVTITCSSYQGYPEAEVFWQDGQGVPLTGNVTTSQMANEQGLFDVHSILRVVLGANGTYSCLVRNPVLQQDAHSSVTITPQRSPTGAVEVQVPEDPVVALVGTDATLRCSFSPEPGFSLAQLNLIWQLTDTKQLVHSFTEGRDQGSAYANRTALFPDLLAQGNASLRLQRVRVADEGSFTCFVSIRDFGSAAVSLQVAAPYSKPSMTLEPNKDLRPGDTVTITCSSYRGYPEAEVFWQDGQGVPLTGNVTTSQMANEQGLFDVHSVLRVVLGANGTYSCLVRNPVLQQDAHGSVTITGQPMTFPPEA
As to the kind of experiment: flow cytometry on Raji cells expressing 4Ig B7-H3; the vector control Raji cells show < 2%. (In general: Flow cytometry measures light scatter and fluorescence of single cells or particles in a stream.)

In test [3] the target is T2, recombinant human 4Ig B7-H3 (human, UniProt Q5ZPR3 29-461, limits assumed).
T2 construct: Bought recombinant protein (Sino Biological); also called 4lg B7-H3
T2 sequence: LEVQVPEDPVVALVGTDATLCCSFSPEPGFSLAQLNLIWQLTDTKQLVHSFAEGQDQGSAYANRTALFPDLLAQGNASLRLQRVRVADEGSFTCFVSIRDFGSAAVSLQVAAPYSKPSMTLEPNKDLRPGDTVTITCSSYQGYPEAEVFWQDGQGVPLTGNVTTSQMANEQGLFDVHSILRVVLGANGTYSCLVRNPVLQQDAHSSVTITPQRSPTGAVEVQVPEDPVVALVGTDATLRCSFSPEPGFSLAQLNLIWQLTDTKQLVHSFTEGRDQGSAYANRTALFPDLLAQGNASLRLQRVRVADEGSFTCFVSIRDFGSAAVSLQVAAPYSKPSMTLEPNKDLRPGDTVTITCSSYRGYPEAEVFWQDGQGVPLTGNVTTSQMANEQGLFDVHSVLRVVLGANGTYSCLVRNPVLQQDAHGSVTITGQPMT
As to the kind of experiment: indirect ELISA, antigen coated at 1 ug/mL, anti-human Fc-HRP, absorbance at 450 nm. How it is done:
(§1) The binding ability of 2D IgG prepared in Example 2 for recombinant B7-H3 protein was investigated by indirect ELISA. For indirect ELISA, recombinant human 4lg B7-H3, recombinant human 2lg B7-H3 and recombinant mouse B7-H3 were diluted respectively to 1 μg/mL in 50 μL of PBS and adsorbed overnight onto a 96-well immunoplate (Corning, USA) by storing at 4° C. After reaction with a buffer solution containing 3% bovine serum albumin at room temperature for 1 hour, followed by washing 3 times with a buffer solution containing 0.5% Tween 20, each well was treated with 50 μL of the antibodies diluted serially (0.0001, 0.0003, 0.001, 0.003, 0.01, 0.03, 0.1, 0.3, 1, 3 and 10 nM). For antigen-antibody binding, the mixture was reacted at room temperature for 2 hours, and then washed 3 times with a buffer solution containing 0.5% Tween 20. After treating each well with 50 μL of anti-human immunoglobulin Fc-HRP antibodies (Jackson Immunoresearch, USA) diluted to 1:3,000, reaction was conducted at room temperature for 1 hour. […] As a result of measuring absorbance at 450 nm using a spectrophotometer (Biotek, USA), it was confirmed that 2D IgG binds to B7-H3, and the binding ability was in the order of 4lg B7-H3, 2lg B7-H3 and mouse B7-H3 (FIG. 2a).
A general note: ELISA stands for enzyme-linked immunosorbent assay.

Test [4] addresses T3, recombinant human 2Ig B7-H3 (human, UniProt Q5ZPR3 29-466).
T3 construct: Bought recombinant protein (R&D Systems); also called 2lg B7-H3
T3 sequence: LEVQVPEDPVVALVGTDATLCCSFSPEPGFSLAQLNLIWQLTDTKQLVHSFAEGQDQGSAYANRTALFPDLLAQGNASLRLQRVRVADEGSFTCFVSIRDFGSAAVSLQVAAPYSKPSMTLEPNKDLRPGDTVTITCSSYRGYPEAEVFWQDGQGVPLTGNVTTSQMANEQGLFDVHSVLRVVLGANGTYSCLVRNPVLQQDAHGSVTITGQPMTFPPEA
Described as above. How it is done: as §1

Turning to “enoblituzumab with wild-type Fc (antibody)”, the T cell-mediated A549 cell-killing effect (GFP fluorescence of A549 cells after 48 h co-culture with activated PBMCs; negative control group = 100) in test [1] stood at 77.3.

B1: enoblituzumab (antibody, part only; not given: Constant regions, V domains shown, not shown: another chain or arm of the molecule)
VH: EVQLVESGGGLVQPGGSLRLSCAASGFTFSSFGMHWVRQAPGKGLEWVAYISSDSSAIYYADTVKGRFTISRDNAKNSLYLQMNSLRDEDTAVYYCGRGRENIYYGSRLDYWGQGTTVTVSS
VL: DIQLTQSPSFLSASVGDRVTITCKASQNVDTNVAWYQQKPGKAPKALIYSASYRYSGVPSRFSGSGSGTDFTLTISSLQPEDFATYYCQQYNNYPFTFGQGTKLEIK
For the molecule B1, the % of cells in the positive gate (P3) in test [2] was over 70%.

B2: 2D IgG (antibody, V domains shown)
VH: AVTLDESGGGLQTPGGGLSLVCKASGFDFSSYPMVWVRQAPGKGLEYVASINSGGSWTGYGAAVKGRATISRDNGQSTVRLQLNNLRAEDTATYYCARAYGAATIDAWGHGTEVIVSS
VL: ALTQPSSVSANLGGTVKITCSGGSIGYGWYQQKAPGSAPVTVIYYNDRRPSDIPSRFSGSKSGSANTLTITGVQADDEAIYYCGSADSSSTYTGIFGAGTTLTVL
notes: Chicken/human chimeric complete antibody (full-length IgG); also called 2D complete antibody; parent antibody (2D)
The EC50 (read off the curve) is the concentration giving half of the maximal effect. As to B2, the “EC50 (read off the curve)” value in test [3] is about 0.006 nM; in test [4], about 0.2 nM.
